Measured values reported in paper PMC6850273, “Cyanophage MazG is a pyrophosphohydrolase but unable to hydrolyse magic spot nucleotides” (Environmental Microbiology Reports, 2019).

Tests used:
Experiment in all cases: PiPER pyrophosphate assay kit, released phosphate
Conditions in all cases: 1 μg purified protein; SE of three replicates
[1] = substrate: Cc1cn([C@H]2C[C@H](O)[C@@H](COP(=O)(O)OP(=O)(O)OP(=O)(O)O)O2)c(=O)[nH]c1=O; format: biochemical, Synechococcus phage S-PM2
Description: (§1) PiPER pyrophosphate assay kit, released phosphate on cyanophage S-PM2 MazG (viral MazG)

[2] = substrate: Nc1ccn([C@H]2C[C@H](O)[C@@H](COP(=O)(O)OP(=O)(O)OP(=O)(O)O)O2)c(=O)n1; format: biochemical, Synechococcus phage S-PM2
Description: as §1

[3] = substrate: Nc1ncnc2c1ncn2[C@@H]1O[C@H](COP(=O)(O)OP(=O)(O)OP(=O)(O)O)[C@@H](O)[C@H]1O; format: biochemical, Synechococcus phage S-PM2
Description: as §1

[4] = substrate: O=c1ccn([C@H]2C[C@H](O)[C@@H](COP(=O)(O)OP(=O)(O)OP(=O)(O)O)O2)c(=O)[nH]1; format: biochemical, Synechococcus phage S-PM2
Description: as §1

[5] = substrate: Nc1nc(O)nc2c1ncn2[C@H]1C[C@H](O)[C@@H](COP(=O)(O)OP(=O)(O)OP(=O)(O)O)O1; format: biochemical, Synechococcus phage S-PM2
Description: as §1

[6] = substrate: Nc1nc2c(ncn2[C@H]2C[C@H](O)[C@@H](COP(=O)(O)OP(=O)(O)OP(=O)(O)O)O2)c(=O)[nH]1; format: biochemical, Synechococcus phage S-PM2
Description: as §1

[7] = substrate: O=c1ccn([C@@H]2O[C@H](COP(=O)(O)OP(=O)(O)OP(=O)(O)O)[C@@H](O)[C@H]2O)c(=O)[nH]1; format: biochemical, Synechococcus phage S-PM2
Description: as §1

[8] = substrate: Nc1ncnc2c1ncn2[C@H]1C[C@H](O)[C@@H](COP(=O)(O)OP(=O)(O)OP(=O)(O)O)O1; format: biochemical, Synechococcus phage S-PM2
Description: as §1

[9] = substrate: Nc1ccn([C@@H]2O[C@H](COP(=O)(O)OP(=O)(O)OP(=O)(O)O)[C@@H](O)[C@H]2O)c(=O)n1; format: biochemical, Synechococcus phage S-PM2
Description: as §1

[10] = substrate: Nc1ccn([C@H]2C[C@H](O)[C@@H](COP(=O)(O)OP(=O)(O)OP(=O)(O)O)O2)c(=O)n1; format: biochemical, Synechococcus sp. WH 7803
Description: (§2) PiPER pyrophosphate assay kit, released phosphate on Synechococcus sp. WH7803 'large' MazG (Syn MazG)

[11] = substrate: Nc1ncnc2c1ncn2[C@@H]1O[C@H](COP(=O)(O)OP(=O)(O)OP(=O)(O)O)[C@@H](O)[C@H]1O; format: biochemical, Synechococcus sp. WH 7803
Description: as §2

[12] = substrate: Nc1nc2c(ncn2[C@@H]2O[C@H](COP(=O)(O)OP(=O)(O)OP(=O)(O)O)[C@@H](O)[C@H]2O)c(=O)[nH]1; format: biochemical, Synechococcus sp. WH 7803
Description: as §2

[13] = substrate: Nc1nc2c(ncn2[C@H]2C[C@H](O)[C@@H](COP(=O)(O)OP(=O)(O)OP(=O)(O)O)O2)c(=O)[nH]1; format: biochemical, Synechococcus sp. WH 7803
Description: as §2

[14] = substrate: O=c1ccn([C@@H]2O[C@H](COP(=O)(O)OP(=O)(O)OP(=O)(O)O)[C@@H](O)[C@H]2O)c(=O)[nH]1; format: biochemical, Synechococcus sp. WH 7803
Description: as §2

[15] = substrate: Nc1ncnc2c1ncn2[C@H]1C[C@H](O)[C@@H](COP(=O)(O)OP(=O)(O)OP(=O)(O)O)O1; format: biochemical, Synechococcus sp. WH 7803
Description: as §2

[16] = substrate: Nc1ccn([C@@H]2O[C@H](COP(=O)(O)OP(=O)(O)OP(=O)(O)O)[C@@H](O)[C@H]2O)c(=O)n1; format: biochemical, Synechococcus sp. WH 7803
Description: as §2

B1: cyanophage S-PM2 MazG (viral MazG) (Synechococcus phage S-PM2) (protein)
chain: MSKVNFERYQEFVSEVTSDASTNFVDFADRIGELDREGANIERLLTAGVGINAEGGEFLEIIKKMVFQGKPWNRDNREHLIIELGDIMWYVAQACIALGVSFDDVISGNVKKLEKRYPGGEFDVFYSENRSADDR
notes: recombinant, over-expressed in E. coli, purified by imidazole elution (tag details only in supplement); single MazG domain
In the case of B1, the Km [1] is reported as 1.23 (±0.06) mM, the Vmax [1] is reported as 5.68 µmol/min/mg and the kcat [1] is reported as 3.68 ± 0.13 s⁻¹. For the same protein, the Km [2] was 1.16 (±0.04) mM, the Vmax [2] was 8.86 µmol/min/mg and the kcat [2] was 5.74 ± 0.129 s⁻¹. The Km [3] was 1.43 (±0.36) mM, the Vmax [3] was 2.28 µmol/min/mg and the kcat [3] was 1.48 ± 0.157 s⁻¹. The Km [4] was 3.24 (±1.55) mM, the Vmax [4] was 4.22 µmol/min/mg and the kcat [4] was 4.94 ± 0.395 s⁻¹. For the same protein, the Km [5] was 4.86 (±1.13) mM, the Vmax [5] was 1.65 µmol/min/mg and the kcat [5] was 1.93 ± 0.0658 s⁻¹. The Km [6] was 0.14 (±0.01) mM, the Vmax [6] was 10.3 µmol/min/mg and the kcat [6] was 6.67 ± 0.165 s⁻¹. For the same protein, the Km [7] was 0.6 (±0.37) mM, the Vmax [7] was 3.31 µmol/min/mg and the kcat [7] was 2.15 ± 0.119 s⁻¹. For the same protein, the Km [8] was 1.2 (±0.21) mM, the Vmax [8] was 1.62 µmol/min/mg and the kcat [8] was 1.05 ± 0.124 s⁻¹. For the same protein, the Km [9] was 0.85 (±0.11) mM, the Vmax [9] was 2.51 µmol/min/mg and the kcat [9] was 1.62 ± 0.111 s⁻¹.

B2: Synechococcus sp. WH7803 'large' MazG (Syn MazG) (Synechococcus sp. WH 7803) (protein)
chain: MAQHATVPGDQDPLRYLESVVARLRDPVNGCPWDLEQTHASLVPYVLEEAHEVADAIRHGDDRHLKEELGDLLLQVVLHARIGAENNRFDLDAIATTISDKLIRRHPHVFGEARAENTEAVRLSWEAIKAAERAEQSGGEQSSSPLSDQLAGKVRGQPALAAAMTISRKAAKAGFEWDAIDGVWGKVQEELDELKEAIASGDRRHAQDELGDVLFTLVNVARWCGLDPEEGLAATNQRFLDRFSRVESALNGDLQGRSIQELEALWQQAKAAIRAENTQSS
notes: recombinant, over-expressed in E. coli and purified (tag details only in supplement); two MazG domains
B2 was tested, and the Km [10] was 0.14 (±0.03) mM, the Vmax [10] was 3.81 µmol/min/mg and the kcat [10] was 4.46 ± 0.417 s⁻¹. The Km [11] was 0.63 (±0.23) mM, the Vmax [11] was 2.55 µmol/min/mg and the kcat [11] was 2.99 ± 0.407 s⁻¹. The Km [12] was 0.26 (±0.02) mM, the Vmax [12] was 0.7 µmol/min/mg and the kcat [12] was 0.824 ± 0.153 s⁻¹. For the same protein, the Km [13] was 0.85 (±0.07) mM, the Vmax [13] was 0.64 µmol/min/mg and the kcat [13] was 0.753 ± 0.293 s⁻¹. The Km [14] was 1.33 (±0.3) mM, the Vmax [14] was 3.02 µmol/min/mg and the kcat [14] was 3.68 ± 0.1 s⁻¹. The Km [15] was 0.3 (±0.09) mM, the Vmax [15] was 1.8 µmol/min/mg and the kcat [15] was 2.1 ± 0.323 s⁻¹. The Km [16] was 1.2 (±0.21) mM, the Vmax [16] was 1.96 µmol/min/mg and the kcat [16] was 2.3 ± 0.164 s⁻¹.
